Starred links: 1 amine or outer side, 2 acyl side, 3 side chain; linkers in the order of their positions; H or OH if unused. Positions of bridges follow the written chain, without caps; N, C: chain ends. Non-standard residues stand in square brackets, D forms with d. Primed or numbered codes have the meaning given here. PyrS2″ = (S)-3-amino-1-((pent-4-en-1-yloxy)carbonyl)pyrrolidine-3-carboxylic acid (stapling residue), C=CCCCOC(=O)N1CC[C@@](N[*:1])(C(=O)[*:2])C1; B5(18) = 2,2-bis(4-pentenyl)glycine (2-amino-2-(pent-4-en-1-yl)hept-6-enoic acid), stitching residue, C=CCCCC(CCCC=C)(N[*:1])C(=O)[*:2]; B5(4) = 2,2-bis(4-pentenyl)glycine = 2-amino-2-(pent-4-en-1-yl)hept-6-enoic acid (stitching residue), C=CCCCC(CCCC=C)(N[*:1])C(=O)[*:2]; B5(21) = 2-amino-2-(pent-4-en-1-yl)hept-6-enoic acid, bis(4-pentenyl)glycine (stitching residue), C=CCCCC(CCCC=C)(N[*:1])C(=O)[*:2]; TfeGA = (S)-2-amino-3-((carboxymethyl)(2,2,2-trifluoroethyl)amino)propanoic acid, O=C([C@H](CN(CC(=O)[*:3])CC(F)(F)F)N[*:1])[*:2]; (EtSSEt)AspE = (S)-2-amino-4-(2-(ethyldisulfaneyl)ethoxy)-4-oxobutanoic acid, CCSSCCOC(=O)C[C@H](N[*:1])C(=O)[*:2]; B5(3) = 2,2-bis(4-pentenyl)glycine (stitching residue), C=CCCCC(CCCC=C)(N[*:1])C(=O)[*:2]; B5 = 2-amino-2-(pent-4-en-1-yl)hept-6-enoic acid, C=CCCCC(CCCC=C)(N[*:1])C(=O)[*:2]; S6 = (S)-2-amino-2-methyloct-7-enoic acid, C=CCCCC[C@](C)(N[*:1])C(=O)[*:2]; S3 = (S)-2-amino-2-methylpent-4-enoic acid, C=CC[C@](C)(N[*:1])C(=O)[*:2]; Phe(2-Cl) = N[C@@H](Cc1ccccc1Cl)C(=O)O; Bta = N[C@@H](Cc1csc2ccccc12)C(=O)O; αAllylPro = C=CC[C@@]1(C(=O)O)CCCN1; tBuAla = CC(C)(C)C[C@H](N)C(=O)O; 3Thi = N[C@@H](Cc1ccsc1)C(=O)O; S8 = C=CCCCCCC[C@](C)(N)C(=O)O; hSer = N[C@@H](CCO)C(=O)O; Aib = CC(C)(N)C(=O)O
B1: I-1983 (peptide)
peptide: Ac-[αAllylPro]D[tBuAla][S3]DDAAFL[Aib][3Thi][Bta]Q-NH2
modifications: staple 1-4; not fully specified; printed as Ac-PL3-Asp-Npg-S3-Asp-Asp-Ala-Ala-Phe-Leu-Aib-3Thi-BztA-Gln-NH2; also: staple -CH=CH- reduced to -CH2-CH2-
B2: I-565 (peptide)
peptide: Ac-[αAllylPro]DL[B5(21)]DDAAFN[S8]F[Bta]H-NH2
modifications: staple 1-4, 4-11; not fully specified
notes: Stapled peptide composition; also called Ac-PL3-Asp-Leu-B5-Asp-Asp-Ala-Ala-Phe-Asn-S8-Phe-BztA-His-NH2
B3: I-577 (peptide)
peptide: Ac-[αAllylPro]DL[B5(21)]DEAAFN[S8]F[Bta]Q-NH2
modifications: staple 1-4, 4-11; not fully specified
notes: Stapled peptide composition; also called Ac-PL3-Asp-Leu-B5-Asp-Glu-Ala-Ala-Phe-Asn-S8-Phe-BztA-Gln-NH2
B4: I-576 (peptide)
peptide: XDLXDEAAFNXFXQ
modifications: not fully specified; N-terminal Ac; C-terminal NH2; non-natural PL3 (1), B5 (4), S8 (11), BztA (13); stapled PL3-B5 and B5-S8 by olefin metathesis
notes: as for B3

The binders below were run against T1, B-cat-Halo (beta-catenin HaloTag Nano-BRET construct) (UniProt P35222 1-781) (assay: cell-based or functional assay).
T1 sequence (looked up): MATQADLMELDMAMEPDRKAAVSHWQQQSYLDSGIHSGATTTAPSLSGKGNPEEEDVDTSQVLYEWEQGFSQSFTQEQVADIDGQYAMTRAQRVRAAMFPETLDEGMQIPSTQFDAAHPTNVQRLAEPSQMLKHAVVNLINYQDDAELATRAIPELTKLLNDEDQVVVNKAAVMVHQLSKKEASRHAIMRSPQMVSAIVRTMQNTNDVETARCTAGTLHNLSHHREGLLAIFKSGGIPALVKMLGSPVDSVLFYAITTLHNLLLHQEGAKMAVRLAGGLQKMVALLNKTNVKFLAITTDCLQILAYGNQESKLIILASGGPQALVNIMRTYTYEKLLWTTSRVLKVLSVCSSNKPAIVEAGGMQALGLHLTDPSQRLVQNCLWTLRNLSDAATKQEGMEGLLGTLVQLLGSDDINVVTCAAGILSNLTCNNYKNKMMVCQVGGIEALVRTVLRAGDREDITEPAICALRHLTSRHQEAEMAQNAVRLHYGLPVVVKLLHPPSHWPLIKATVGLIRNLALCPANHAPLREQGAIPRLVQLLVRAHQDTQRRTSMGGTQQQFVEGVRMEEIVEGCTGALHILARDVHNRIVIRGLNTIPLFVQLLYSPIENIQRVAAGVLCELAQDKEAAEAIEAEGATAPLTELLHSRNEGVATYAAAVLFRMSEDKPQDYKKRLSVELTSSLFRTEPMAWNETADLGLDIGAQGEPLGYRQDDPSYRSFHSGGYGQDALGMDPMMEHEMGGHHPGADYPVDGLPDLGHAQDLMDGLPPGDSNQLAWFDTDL

Row | Binder | NanoBRET Abs IC50 [µM]
1 | B1 | > 20
2 | Ac-[αAllylPro]D[tBuAla][B5(4)]D[(EtSSEt)AspE]AAFL[PyrS2″][3Thi][Bta]Q-NH2 (staple 1-4, 4-11) [I-1965] | 25.2
3 | Ac-[αAllylPro]D[tBuAla][S6]DDAAFL[Aib][3Thi][Bta]Q-NH2 (staple 1-4) [I-1978] | > 20

Each binder was assayed against T2, beta-catenin in DLD1 TCF/LEF luciferase reporter cells (UniProt P35222 1-781) (assay: cell-based or functional assay).
T2 sequence (looked up): T1 sequence (looked up)

Row | Binder | DLD1 4% Abs IC50 [µM]
4 | Ac-[αAllylPro]D[tBuAla][B5(3)]D[TfeGA]AAFS[S8][Phe(2-Cl)][Bta][hSer]-NH2 (staple 1-4, 4-11; also: later-eluting HPLC isomer) [I-999] | 5.6
5 | Ac-[αAllylPro]D[tBuAla][B5(3)]D[TfeGA]AAF[hSer][S8][Phe(2-Cl)][Bta][hSer]-NH2 (staple 1-4, 4-11) [I-1000] | 1.9
6 | Ac-[αAllylPro]D[tBuAla][B5(18)]D[TfeGA]FAFN[PyrS2″][Phe(2-Cl)][Bta]Q-NH2 (staple 1-4, 4-11) [I-1008] | 4.7

These binders were tested against T3, beta-catenin in DLD1 TCF/LEF luciferase reporter cells (UniProt P35222 1-781) (assay: cell-based or functional assay).
T3 sequence (looked up): T1 sequence (looked up)

Row | Binder | DLD1 4% Abs IC50 [µM]
7 | Ac-[αAllylPro]D[tBuAla][B5]DDAAFN[PyrS2″][3Thi][Bta]S-NH2 (staple 1-4, 4-11) [I-815] | 10.3
8 | Ac-[αAllylPro]D[tBuAla][B5]DDAAFN[PyrS2″][3Thi][Bta]T-NH2 (staple 1-4, 4-11) [I-814] | 16.5

The binders below were run against T4, B-cat-Halo (UniProt P35222 1-781) (assay: cell-based or functional assay).
T4 sequence (looked up): T1 sequence (looked up)

Row | Binder | NanoBRET Abs IC50 [µM]
9 | Ac-[αAllylPro]D[tBuAla][B5(3)]D[TfeGA]AAFS[S8][Phe(2-Cl)][Bta][hSer]-NH2 (staple 1-4, 4-11; also: later-eluting HPLC isomer) [I-999] | 26.3
10 | Ac-[αAllylPro]D[tBuAla][B5(3)]D[TfeGA]AAF[hSer][S8][Phe(2-Cl)][Bta][hSer]-NH2 (staple 1-4, 4-11) [I-1000] | 23.9
11 | Ac-[αAllylPro]D[tBuAla][B5(18)]D[TfeGA]FAFN[PyrS2″][Phe(2-Cl)][Bta]Q-NH2 (staple 1-4, 4-11) [I-1008] | 14

Each binder was assayed against T5, B-cat-Halo (beta-catenin HaloTag construct expressed in HEK293 cells) (UniProt P35222 1-781) (assay: cell-based or functional assay).
T5 sequence (looked up): T1 sequence (looked up)

Row | Binder | NanoBRET Abs IC50 [µM]
12 | Ac-[αAllylPro]D[tBuAla][B5]DDAAFN[PyrS2″][3Thi][Bta]S-NH2 (staple 1-4, 4-11) [I-815] | 15.4
13 | Ac-[αAllylPro]D[tBuAla][B5]DDAAFN[PyrS2″][3Thi][Bta]T-NH2 (staple 1-4, 4-11) [I-814] | 18.9

These binders were tested against T6, B-cat-Halo (UniProt P35222 1-781) (assay: cell-based or functional assay).
T6 sequence (looked up): T1 sequence (looked up)

Row | Binder | NanoBRET Abs IC50 [µM]
14 | Ac-[αAllylPro]D[tBuAla][B5(3)]D[TfeGA]AAFF[PyrS2″]F[Bta]Q-NH2 (staple 1-4, 4-11) [I-988] | 13.9
15 | Ac-[αAllylPro]D[tBuAla][B5(3)]D[TfeGA]AAFF[PyrS2″][Phe(2-Cl)][Bta]S-NH2 (staple 1-4, 4-11) [I-990] | 8.8

Each binder was assayed against T7, B-cat-Halo (UniProt P35222 1-781) (assay: NanoBRET Abs IC50 in HEK293 cells; Bcat-Halo, TCF4-Luc as competitor).
T7 construct: Expressed by transfection in HEK293 cells for the NanoBRET assay; also called beta-catenin HaloTag NanoBRET construct; not shown: HaloTag
T7 sequence (looked up): T1 sequence (looked up)

Row | Binder | IC50 [µM]
16 | B2 | 26
17 | B3 | 10.4
18 | B4 | 11.1
